Source: patent US20230287109A1

Legend:
[1] = biological target: recombinant human VEGF (human) (UniProt P15692); assay: cell-based or functional assay
rabbit VEGF (rabbit) = rabbit VEGF (rabbit) (UniProt G1T1L9); assay: SPR, summary table, column Rabbit VEGF, Kd [M]

Chain of recombinant human VEGF (human) (P15692 other isoform, or with tags, fused parts or gaps limits assumed): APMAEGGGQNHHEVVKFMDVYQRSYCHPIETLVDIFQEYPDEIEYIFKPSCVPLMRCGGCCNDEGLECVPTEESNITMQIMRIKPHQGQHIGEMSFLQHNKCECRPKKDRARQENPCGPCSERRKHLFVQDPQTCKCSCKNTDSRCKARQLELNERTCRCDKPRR

aflibercept (Fc fusion)
IC50, VEGF reporter assay (KDR/NFAT-RE HEK293 cells, luminescence) [1]: 0.75 nM
Kd (rabbit VEGF (rabbit)): 1.41 nM
